Patent publication US20110158985A1 (published 2011)
Values joined by “and” are separate entries in the source; they are usually repeats but may differ in a detail not shown here. Identical values can stand only once. Like-named read-outs stand apart in the source and are kept apart here.

B1: A13c4 IgG (antibody, V domains shown)
VH: QVTLRESGPALVKPTQTLTLTCTFSGFSLSTAGMSVGWIRQPPGKALEWLADIWWDGKKSYNPSLKDRLTISKDTSKNQVVLKVTNMDPADTATYYCARDMIFNFYFDVWGQGTTVTVSS
VL: DIQMTQSPSTLSASVGDRVTITCSLSSRVGYMHWYQQKPGKAPKLLIYDTMYQSSGVPSRFSGSGSGTEFTLTISSLQPDDFATYYCFQGSGYPFTFGGGTKVEIKR
B2: A13a11 Fab (Fab, V domains shown)
VH: QVTLRESGPALVKPTQTLTLTCTFSGFSLSTAGMSVGWIRQPPGKALEWLADIWWDDKKHYNPSLKDRLTISKDTSKNQVVLKVTNMDPADTATYYCARDMIFNWYFDVWGQGTTVTVSS
VL: DIQMTQSPSTLSASVGDRVTITCSPSSRVGYMHWYQQKPGKAPKLLIYDTYRHSSGVPSRFSGSGSGTEFTLTISSLQPDDFATYYCFQGSGYPFTFGGGTKVEIK
B3: AFFF(1) IgG (antibody, V domains shown)
VH: QVTLRESGPALVKPTQTLTLTCTFSGFSLSTAGMSVGWIRQPPGKALEWLADIWWDDKKDYNPSLKSRLTISKDTSKNQVVLKVTNMDPADTATYYCARSMITNFYFDVWGQGTTVTVSS
VL: DIQMTQSPSTLSASVGDRVTITCSASSSVGYMHWYQQKPGKAPKLLIYDTFKLASGVPSRFSGSGSGTEFTLTISSLQPDDFATYYCFQGSFYPFTFGGGTKVEIKR
B4: A17d4(1) IgG (antibody, V domains shown)
VH: QVTLRESGPALVKPTQTLTLTCTFSGFSLSTAGMSVGWIRQPPGKALEWLADIWWDGKKSYNPSLKDRLTISKDTSKNQVVLKVTNMDPADTATYYCARDMIFNFYFDVWGQGTTVTVSS
VL: DIQMTQSPSTLSASVGDRVTITCLPSSRVGYMHWYQQKPGKAPKLLIYDTMYQSSGVPSRFSGSGSGTEFTLTISSLQPDDFATYYCFQGSGYPFTFGGGTKVEIKR
B5: P11d4 Fab (Fab, V domains shown)
VH: QVTLRESGPALVKPTQTLTLTCTFSGFSLSTPGMSVGWIRQPPGKALEWLADIWWDGKKHYNPSLKDRLTISKDTSKNQVVLKVTNMDPADTATYYCARDMIFNWYFDVWGQGTTVTVSS
VL: DIQMTQSPSTLSASVGDRVTITCSPSSRVGYMHWYQQKPGKAPKLLIYDTMRLASGVPSRFSGSGSGTEFTLTISSLQPDDFATYYCFQGSGYPFTFGGGTKVEIK
B6: A12a6 Fab (Fab, V domains shown)
VH: QVTLRESGPALVKPTQTLTLTCTFSGFSLSTAGMSVGWIRQPPGKALEWLADIWWDGKKDYNPSLKDRLTISKDTSKNQVVLKVTNMDPADTATYYCARDMIFNFYFDVWGQGTTVTVSS
VL: DIQMTQSPSTLSASVGDRVTITCSASSRVGYMHWYQQKPGKAPKLLIYDTFKLSSGVPSRFSGSGSGTEFTLTISSLQPDDFATYYCFQGSGYPFTFGGGTKVEIK
B7: A13c4 Fab (Fab, V domains shown)
VH: QVTLRESGPALVKPTQTLTLTCTFSGFSLSTAGMSVGWIRQPPGKALEWLADIWWDGKKSYNPSLKDRLTISKDTSKNQVVLKVTNMDPADTATYYCARDMIFNFYFDVWGQGTTVTVSS
VL: DIQMTQSPSTLSASVGDRVTITCSLSSRVGYMHWYQQKPGKAPKLLIYDTMYQSSGVPSRFSGSGSGTEFTLTISSLQPDDFATYYCFQGSGYPFTFGGGTKVEIK
B8: AFSF IgG (antibody, name in Kabat numbering, V domains shown)
VH: QVTLRESGPALVKPTQTLTLTCTFSGFSLSTAGMSVGWIRQPPGKALEWLADIWWDDKKDYNPSLKSRLTISKDTSKNQVVLKVTNMDPADTATYYCARSMITNFYFDVWGQGTTVTVSS
VL: DIQMTQSPSTLSASVGDRVTITCSASSSVGYMHWYQQKPGKAPKLLIYDTSKLASGVPSRFSGSGSGTEFTLTISSLQPDDFATYYCFQGSFYPFTFGGGTKVEIK
B9: AFFG IgG (antibody, name in Kabat numbering, V domains shown)
VH: QVTLRESGPALVKPTQTLTLTCTFSGFSLSTAGMSVGWIRQPPGKALEWLADIWWDDKKDYNPSLKSRLTISKDTSKNQVVLKVTNMDPADTATYYCARSMITNFYFDVWGQGTTVTVSS
VL: DIQMTQSPSTLSASVGDRVTITCSASSSVGYMHWYQQKPGKAPKLLIYDTFKLASGVPSRFSGSGSGTEFTLTISSLQPDDFATYYCFQGSGYPFTFGGGTKVEIK
B10: A1e9 Fab (Fab, V domains shown)
VH: QVTLRESGPALVKPTQTLTLTCTFSGFSLSTAGMSVGWIRQPPGKALEWLADIWWDGKKHYNPSLKDRLTISKDTSKNQVVLKVTNMDPADTATYYCARDMIFNWYFDVWGQGTTVTVSS
VL: DIQMTQSPSTLSASVGDRVTITCSLSSRVGYMHWYQQKPGKAPKLLIYDTFKLSSGVPSRFSGSGSGTEFTLTISSLQPDDFATYYCFQGSGYPFTFGGGTKVEIK
notes: also called Ale9
B11: AFFY IgG (antibody, name in Kabat numbering, V domains shown)
VH: QVTLRESGPALVKPTQTLTLTCTFSGFSLSTAGMSVGWIRQPPGKALEWLADIWWDDKKDYNPSLKSRLTISKDTSKNQVVLKVTNMDPADTATYYCARSMITNFYFDVWGQGTTVTVSS
VL: DIQMTQSPSTLSASVGDRVTITCSASSSVGYMHWYQQKPGKAPKLLIYDTFKLASGVPSRFSGSGSGTEFTLTISSLQPDDFATYYCFQGSYYPFTFGGGTKVEIK

Tests used:
[1] = molecular target: T1, RSV F glycoprotein (NUF4) (respiratory syncytial virus); experiment: SPR (BIAcore), mAb vs NUF4 (1:1)
T1 chain 1: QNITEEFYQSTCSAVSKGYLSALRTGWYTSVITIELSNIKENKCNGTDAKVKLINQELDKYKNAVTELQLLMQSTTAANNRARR
T1 chain 2: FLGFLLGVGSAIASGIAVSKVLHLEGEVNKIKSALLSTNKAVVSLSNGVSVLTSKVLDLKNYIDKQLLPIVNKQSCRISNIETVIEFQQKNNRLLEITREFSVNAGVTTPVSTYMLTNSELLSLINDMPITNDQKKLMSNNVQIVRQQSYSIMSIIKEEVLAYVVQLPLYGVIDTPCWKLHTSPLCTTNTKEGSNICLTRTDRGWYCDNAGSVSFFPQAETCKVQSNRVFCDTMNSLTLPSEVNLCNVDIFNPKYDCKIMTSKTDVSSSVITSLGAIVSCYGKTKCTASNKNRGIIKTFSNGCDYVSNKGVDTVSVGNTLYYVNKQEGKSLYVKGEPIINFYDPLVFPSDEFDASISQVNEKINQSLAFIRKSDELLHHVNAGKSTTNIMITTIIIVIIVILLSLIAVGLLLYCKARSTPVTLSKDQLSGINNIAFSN

Bac-F = Bac-F (respiratory syncytial virus); experiment: SPR (BIAcore), mAb vs Bac-F (1:1)
[2] = molecular target: T1, RSV F glycoprotein (NUF4); experiment: ITC, NUF4 titrated into antibody, 35 C
Procedure: The binding thermodynamics of the antibodies were determined from ITC measurements using a Microcal, Inc. VP Titration Calorimeter. The VP titration calorimeter consists of a matched pair of sample and reference vessels (1.409 ml) enclosed in an adiabatic enclosure and a rotating stirrer-syringe for titrating ligand solutions into the sample vessel. The ITC measurements were performed at 25° C. and 35° C. The sample vessel contained the antibody in the phosphate buffer while the reference vessel contained just the buffer solution. The phosphate buffer solution was saline 67 mM PO₄ at pH 7.4 from HyClone, Inc. Five or ten μl aliquots of the 0.05 to 0.1 mM NUF4 solution were titrated 3 to 4 minutes apart into the antibody sample solution until the binding was saturated as evident by the lack of a heat exchange signal. […] This was attributed to a heat of dilution of the NUF4 titrant and was subtracted from the titrant heats obtained during the titration prior to analysis of the data.
A non-linear, least square minimization software program from Microcal, Inc., Origin 5.0, was used to fit the incremental heat of the ith titration (ΔQ (i)) of the total heat, Qₜ, to the total titrant concentration, Xₜ, according to the following equations (I),

[3] = molecular target: T2, F protein of RSV (Long strain) (RSV (Long strain), UniProt P12568 26-574); experiment: cell-based or functional assay
[4] = molecular target: T3, recombinant C-terminally truncated RSV (A2 strain) F protein (RSV (A2 strain), UniProt P03420 26-524); experiment: SPR (BIAcore), IgG over immobilised F
T3 construct: extracellular domain; also called truncated F protein; extracellular domain of the F protein from RSV A2

[5] = molecular target: T2, F protein of RSV (Long strain); experiment: cell-based or functional assay; remark: listed apart in the source
[6] = molecular target: T1, RSV F glycoprotein (NUF4); experiment: SPR (BIAcore), mAb vs NUF4 (2:1)
[7] = molecular target: T3, recombinant C-terminally truncated RSV …; experiment: SPR (BIAcore), Fab over immobilised F
[8] = molecular target: T2, F protein of RSV (Long strain); experiment: cell-based or functional assay; remark: listed apart in the source
RSV F protein (purified) = RSV F protein (purified) (respiratory syncytial virus); experiment: SPR (BIAcore), F protein immobilised
[9] = molecular target: T3, recombinant C-terminally truncated RSV …; experiment: SPR (BIAcore), IgG over immobilised F; remark: listed apart in the source
[10] = molecular target: T2, F protein of RSV (Long strain); experiment: cell-based or functional assay; remark: listed apart in the source

Row | Binder | Mean IC50 (Control) [5] [µg/mL] | Mean IC50 (Curve) [5] [µg/mL] | Kd [7] [nM] | koff [7] [s⁻¹] | kon [7] [M⁻¹ s⁻¹] | Microneutralization IC50, Fab [3] | IC50 [8] [nM] | koff (RSV F protein (purified)) | kon (RSV F protein (purified)) | koff [9] [s⁻¹] | kon [9] [M⁻¹ s⁻¹] | Microneutralization IC50, IgG [10] | also measured
1 | B1 | 0.0375 | 0.0376 |  |  |  |  |  |  |  |  |  |  | Kd [1]: 0.75 nM; fold in parentheses (palivizumab = 1) [1]: 12 fold; koff [1]: 0.000272 s⁻¹; kon [1]: 365000 M⁻¹ s⁻¹; Kd (Bac-F): 0.13 nM; fold in parentheses (palivizumab = 1) (Bac-F): 30 fold; Ka [2]: 1.07e+08 M⁻¹; Kd [2]: 9 nM; ΔHb [2]: 16 kcal/mol; Microneutralization IC50, IgG [3]: 0.0376 µg/ml and 0.25 nM; Kd [4]: 0.132 nM; koff [4]: 3.96e-05 s⁻¹; kon [4]: 300000 M⁻¹ s⁻¹; Kd [6]: 0.7 nM; fold in parentheses (palivizumab = 1) [6]: 446 fold; koff [6]: 0.000225 s⁻¹; kon [6]: 320000 M⁻¹ s⁻¹
2 | B2 | 0.102 | 0.12 | 0.337 | 0.000229 | 680000 | 0.012 µg/ml and 2.4 nM | 2.04 | 0.00025 s⁻¹ | 735000 M⁻¹ s⁻¹ |  |  |  | 
3 | B3 |  |  |  |  |  |  |  | 0.000274 s⁻¹ and 0.000266 s⁻¹ and 0.000206 s⁻¹ | 108000 M⁻¹ s⁻¹ and 96000 M⁻¹ s⁻¹ and 124000 M⁻¹ s⁻¹ | ≤ 5e-06 | 127000 | 0.306 µg/ml and 2.04 nM | Microneutralization IC50, IgG [3]: 2.04 nM and 0.306 µg/ml; Kd [4]: ≤ 0.039 nM; koff [4]: ≤ 5e-06 s⁻¹; kon [4]: 127000 M⁻¹ s⁻¹
4 | B4 | 0.0354 | 0.0342 |  |  |  |  |  |  |  |  |  |  | Kd [1]: 0.73 nM; fold in parentheses (palivizumab = 1) [1]: 12 fold; koff [1]: 0.000362 s⁻¹; kon [1]: 499000 M⁻¹ s⁻¹; Kd (Bac-F): 0.09 nM; fold in parentheses (palivizumab = 1) (Bac-F): 43 fold; Ka [2]: 7.5e+07 M⁻¹; Kd [2]: 13 nM; ΔHb [2]: 16.3 kcal/mol; Microneutralization IC50, IgG [3]: 0.0342 µg/ml and 0.23 nM; Kd [4]: 0.089 nM; koff [4]: 4.07e-05 s⁻¹; kon [4]: 456000 M⁻¹ s⁻¹; Kd [6]: 1.11 nM; fold in parentheses (palivizumab = 1) [6]: 281 fold; koff [6]: 0.000292 s⁻¹; kon [6]: 264000 M⁻¹ s⁻¹
5 | B5 | > 1 | > 1 | 0.682 | 0.000389 | 570000 |  | > 20 | 0.000717 s⁻¹ | 570000 M⁻¹ s⁻¹ and 572000 M⁻¹ s⁻¹ |  |  |  | 
6 | B6 | 0.031 | 0.0287 | 0.422 | 0.000219 | 519000 | 0.0287 µg/ml and 0.57 nM | 0.62 | 0.00023 s⁻¹ | 743000 M⁻¹ s⁻¹ |  |  |  | 
7 | B7 | 0.0258 | 0.0264 | 0.172 | 0.000112 | 650000 | 0.0264 µg/ml and 0.53 nM | 0.52 | 0.00028 s⁻¹ | 781000 M⁻¹ s⁻¹ and 735000 M⁻¹ s⁻¹ |  |  |  | 
8 | B8 |  |  |  |  |  |  |  |  |  | ≤ 5e-06 | 147000 | 0.521 µg/ml and 3.47 nM | 
9 | B9 |  |  |  |  |  |  |  |  |  | ≤ 5e-06 | 147000 | 0.453 µg/ml and 3.02 nM | 
10 | B10 | 0.125 | 0.157 | 0.216 | 0.000113 | 523000 | 0.157 µg/ml and 3.14 nM | 2.5 | 0.000453 s⁻¹ | 790000 M⁻¹ s⁻¹ |  |  |  | 
11 | B11 |  |  |  |  |  |  |  |  |  | ≤ 5e-06 | 144000 | 0.407 µg/ml and 2.71 nM | 
